Values of other authors as cited in patent US20070299244A1, “Liposome allowing liposome-entrapped substance to escape from endosome” (Japan Science and Technology Agency, priority 2005, published 2007).
Where two headings read alike, the source gives them in different places.

## GALA: synthetic peptide comprising the amino acid sequence represented by SEQ ID NO:1 (AALAELAEALAEALHEALAEALAEALAAEW; Designed peptide called “GALA”)
pH 5.0
  Proportion of α helix structures: about 70%
pH 7.4
  Proportion of α helix structures: about 20%
